Reference: PMC5586245, “2017 publication guidelines for structural modelling of small-angle scattering data from biomolecules in solution: an update” (Acta Crystallographica. Section D, Structural Biology, 2017)

Molecular target: the molecule itself
Assay: SEC-SAXS; inline SEC (5 x 150 mm Superdex S200, 0.45 ml/min) with SAXS at the Australian Synchrotron SAXS/WAXS beamline, sheath-flow cell; 25 mM MOPS, 250 mM NaCl, 50 mM KCl, 2 mM TCEP, 0.1% NaN3 pH 7.5; 22 °C; mass from I(0), Porod volume and fit of crystal structures

B1: glucose isomerase (enzyme)
chain: not shown
notes: glucose isomerase (xylose isomerase), Streptomyces rubiginosus, UniProt P24300 residues 2-388; Tetramer; M from chemical composition 172912 Da for the tetramer; also called GI; GI (tetramer); source: bought: Hampton Research (HR7-100); stored in diluted form, repeated freeze-thaw cycles; no purification step before the SEC-SAXS column
  stoichiometry N: 4
